# Measurements: paper PMC6366758 (2019)
# B1: Motavizumab (antibody, V domains shown)
# VH: QVTLRESGPALVKPTQTLTLTCTFSGFSLSTAGMSVGWIRQPPGKALEWLADIWWDDKKHYNPSLKDRLTISKDTSKNQVVLKVTNMDPADTATYYCARDMIFNFYFDVWGQGTTVTVSS
# VL: DIQMTQSPSTLSASVGDRVTITCSASSRVGYMHWYQQKPGKAPKLLIYDTSKLASGVPSRFSGSGSGTEFTLTISSLQPDDFATYYCFQGSGYPFTFGGGTKVEIK
# B2: R4.C6 monoclonal antibody (antibody, V domains shown)
# VH: EVQLQQSGPELVKPGASVKISCKASGYAFSNSWMSWVKQRPGKGLEWIGRLFPADGDITYNGHFKDKAALTADKSSNTAYIQLSSLTSEDSAVYFCARMDNSEVFWGQGTLVTVSA
# VL: DILLTQSQKFMSTSVGDRVSITCKASQNVRTGVSWYQRKPGQSPKALIYLASNRHTGVPDRFTGRGSGTDFTLTISEVQSEDLADYFCLQHWTVPYTFGGGTKLEIK
# Legend:
# Post-fusion F [1] = molecular target: T1, Post-fusion F (human respiratory syncytial virus A2 …); assay: SPR
# Post-fusion F [2] = molecular target: T1, Post-fusion F; assay: SPR; remark: listed apart in the source
Binder,koff (Post-fusion F [1]),Kd (Post-fusion F [2])
B1,1.44e-05 s⁻¹,0.04 nM
B2,3.74e-05 s⁻¹,
